Experimental data from publication PMC3855764, “Oct4/Sox2 Binding Sites Contribute to Maintaining Hypomethylation of the Maternal Igf2/H19 Imprinting Control Region”.

How the values were obtained:
[1] = target: T1, Oct4 (recombinant);Sox2 (recombinant) (mouse?;mouse?, UniProt P20263;P48432 1-352;1-319, |); assay: EMSA; cooperative ternary complex; printed as at least 50 fold; 10 mM Tris pH 8.0, 2 mM MgCl (so in the source), 100 mM KCl, 1.25 mM DTT, 5% glycerol, 0.0625% BSA, 19 ug/ml dGdC, 25 fmol probe in 16 ul, 10 min room temperature; 4% PAGE 0.25X TBE; details: protein: recombinant;recombinant; tags: ;; copies: 1;1
T1 sequence (P20263 whole entry, chain 1 of 2): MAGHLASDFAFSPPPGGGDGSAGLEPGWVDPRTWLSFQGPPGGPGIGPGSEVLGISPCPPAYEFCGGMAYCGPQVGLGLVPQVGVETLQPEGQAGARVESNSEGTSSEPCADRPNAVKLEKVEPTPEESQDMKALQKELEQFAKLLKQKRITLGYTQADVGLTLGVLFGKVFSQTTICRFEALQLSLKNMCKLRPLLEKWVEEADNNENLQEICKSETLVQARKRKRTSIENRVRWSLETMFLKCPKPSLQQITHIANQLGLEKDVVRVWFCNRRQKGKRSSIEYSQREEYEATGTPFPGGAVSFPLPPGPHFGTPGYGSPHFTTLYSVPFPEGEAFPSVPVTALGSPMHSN
T1 sequence (P48432 whole entry, chain 2 of 2): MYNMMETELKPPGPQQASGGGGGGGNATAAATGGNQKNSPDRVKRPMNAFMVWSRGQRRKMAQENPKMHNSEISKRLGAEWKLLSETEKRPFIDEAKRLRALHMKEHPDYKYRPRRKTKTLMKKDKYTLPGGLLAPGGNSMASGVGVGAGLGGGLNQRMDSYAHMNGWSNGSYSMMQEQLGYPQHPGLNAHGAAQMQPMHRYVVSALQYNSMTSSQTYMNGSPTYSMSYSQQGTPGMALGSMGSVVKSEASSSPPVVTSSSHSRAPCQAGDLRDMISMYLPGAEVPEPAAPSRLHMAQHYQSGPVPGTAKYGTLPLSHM

[2] = target: T1, Oct4 (recombinant);Sox2 (recombinant); assay: EMSA; all CpGs methylated; complex not inhibited; 10 mM Tris pH 8.0, 2 mM MgCl (so in the source), 100 mM KCl, 1.25 mM DTT, 5% glycerol, 0.0625% BSA, 19 ug/ml dGdC, 25 fmol probe in 16 ul, 10 min room temperature; 4% PAGE 0.25X TBE; details: protein: recombinant;recombinant; tags: ;; copies: 1;1
[3] = target: T1, Oct4 (recombinant);Sox2 (recombinant); assay: EMSA; several complexes, minor one likely full occupancy; 10 mM Tris pH 8.0, 2 mM MgCl (so in the source), 100 mM KCl, 1.25 mM DTT, 5% glycerol, 0.0625% BSA, 19 ug/ml dGdC, 25 fmol probe in 16 ul, 10 min room temperature; 4% PAGE 0.25X TBE; details: protein: recombinant;recombinant; tags: ;; copies: 1;1
[4] = target: T1, Oct4 (recombinant);Sox2 (recombinant); assay: EMSA; cooperative ternary complex; versus independent binding; 10 mM Tris pH 8.0, 2 mM MgCl (so in the source), 100 mM KCl, 1.25 mM DTT, 5% glycerol, 0.0625% BSA, 19 ug/ml dGdC, 25 fmol probe in 16 ul, 10 min room temperature; 4% PAGE 0.25X TBE; details: protein: recombinant;recombinant; tags: ;; copies: 1;1
[5] = target: T1, Oct4 (recombinant);Sox2 (recombinant); assay: EMSA; Oct4-Sox2-Oct4 complex (two Oct4, one Sox2); 10 mM Tris pH 8.0, 2 mM MgCl (so in the source), 100 mM KCl, 1.25 mM DTT, 5% glycerol, 0.0625% BSA, 19 ug/ml dGdC, 25 fmol probe in 16 ul, 10 min room temperature; 4% PAGE 0.25X TBE; details: protein: recombinant;recombinant; tags: ;; chain copies: 2;1

B1: ICR Sox-OctB (dsDNA)
DNA 1: TTGGGGCGTTCAGATGCTAATGATCTCCGGCT
DNA 2: AGCCGGAGATCATTAGCATCTGAACGCCCCAA
**Q.** For B1, which binding signal [1] is on record?
**A.** The binding signal was > 50 fold ternary complex over that expected from independent binding.

B2: B* (methylated Sox-OctB) (dsDNA)
DNA 1: B1 DNA 1
DNA 2: B1 DNA 2
modifications: CpG methylated at all CpGs
**Q.** Does B2 bind [2]?
**A.** Result: binds

B3: mouse ICR Sox-OctA+B (both motifs) (dsDNA)
DNA 1: TTTCGTATTCTAATTGGGGCGTTCAGATGCTAATGATCTC
DNA 2: GAGATCATTAGCATCTGAACGCCCCAATTAGAATACGAAA
**Q.** Does B3 bind [3]?
**A.** Result: binds

B4: ICR Sox-OctA (dsDNA)
DNA 1: CTGGTGATTTGCGCTTTCGTATTCTAATTGGGGAC
DNA 2: GTCCCCAATTAGAATACGAAAGCGCAAATCACCAG
**Q.** Does B4 bind [4]?
**A.** Result: binds

B5: A* (methylated Sox-OctA) (dsDNA)
DNA 1: B4 DNA 1
DNA 2: B4 DNA 2
modifications: CpG methylated at all CpGs
**Q.** Does B5 bind [2]?
**A.** Result: binds

B6: human ICR A2 OctA/Sox-OctB, upstream Sox site mutant (dsDNA)
DNA 1: CGCGGAGATGCTAATTTAGGAGCTTGAGATGCTAAAGAGCTG
DNA 2: CAGCTCTTTAGCATCTCAAGCTCCTAAATTAGCATCTCCGCG
**Q.** Does B6 bind [5]?
**A.** Result: binds
